Source: patent US20190083587A1 (Novo Nordisk, published 2019)
The star is where a group is joined. Biotin = O=C1N[C@H]2[C@H](CS[C@H]2CCCCC(=O)*)N1; AEEA = NCCOCCOCC(=O)O

Key:
[1] = biological target: T1, hTLT-1 ECD-His (human, UniProt Q86YW5 16-162); assay: SPR Biacore, mAb captured via human Fc mAb, TLT-1 as analyte
T1 construct: Extracellular domain of human TLT-1 with C-terminal His-6 tag; the range 16-168 is computed from these; also called TLT-1-His; His tagged human TLT1
T1 sequence: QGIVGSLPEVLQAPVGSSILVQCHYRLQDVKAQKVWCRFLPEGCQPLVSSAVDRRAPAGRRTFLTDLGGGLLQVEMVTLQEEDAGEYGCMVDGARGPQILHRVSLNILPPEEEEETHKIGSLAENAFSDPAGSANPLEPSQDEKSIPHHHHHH
Method: Method: The mAbs of interest were either immobilized directly to a CM5 chip or by capture via a human Fc capture mAb immobilized to a CM5 chip, while TLT-1-His was immobilized by capture via an anti-His mAb CM5 chip for analysis of Fabs.
mAb direct capture: The TLT-1 mAbs were immobilised to a level of approx 500-1000 RU on a CM5 chip (50 μg/ml diluted in Na-acetate, pH 4.0) using the standard procedure recommended by the supplier. Two-fold dilutions of TLT-1 from 200 nM to 0.2 nM were tested for binding to the mAbs. Running and dilution buffer: 10 mM HEPES, 150 mM, 0.005% p20, pH 7.4. Regeneration was obtained by 10 mM Glycine, pH 1.7. mAb capture via human Fc mAb: Human Fc mAb was immobilised to approx 10.000 RU. The mAb of interest was added (approx 100 nM). Two-fold dilutions of TLT-1 from 200 nM to 0.2 nM were tested. Running and dilution buffer: 10 mM HEPES, 150 mM, 0.005% p20, pH 7.4. Regeneration was obtained in 3 M MgCl₂.

[2] = biological target: T2, biotinylated 16 mer peptide 41 from the stalk region of hTLT-1 (SMILES …); assay: peptide-walking ELISA on streptavidin plate, triple determination
T2 construct: also called D 5
T2 peptide: {Biotin-AEEA}-HKIGSLAENAFSDPAG-NH2
Method: (§1) The peptide walking ELISA defined the minimal binding region of the peptide. This was established by coating biotinylated peptides with one residue frameshift in the stalk region of TLT-1 in streptavidin plates followed by binding of the antibody of interest (mAb0061). A secondary antibody was added for detection and binding was measured at 450 nm. Positive control: binding to biotinylated TLT-1.

[3] = biological target: T3, biotinylated 20 mer peptide 8 from stalk region of TLT-1 (N-terminal bio-Oeg (biotin, 8-amino-3,6-dioxaoctanoic acid spacer)); assay: as above
T3 construct: also called A 8
T3 peptide: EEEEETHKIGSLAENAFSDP
Method: as §1

[4] = biological target: T4, biotinylated 16 mer peptide 40 from the stalk region of hTLT-1 (SMILES …); assay: as above
T4 construct: also called D 4
T4 peptide: {Biotin-AEEA}-THKIGSLAENAFSDPA-NH2
Method: as §1

[5] = biological target: T5, biotinylated 20 mer peptide 14 from stalk region of TLT-1 (N-terminal bio-Oeg (biotin, 8-amino-3,6-dioxaoctanoic acid spacer)); assay: as above
T5 construct: also called B 2
T5 peptide: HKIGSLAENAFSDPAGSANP
Method: as §1

[6] = biological target: T6, biotinylated 16 mer peptide 42 from the stalk region of hTLT-1 (SMILES …); assay: as above
T6 construct: also called D 6
T6 peptide: {Biotin-AEEA}-KIGSLAENAFSDPAGS-NH2
Method: as §1

[7] = biological target: T7, biotinylated 16 mer peptide 38 from the stalk region of hTLT-1 (SMILES …); assay: as above
T7 construct: also called D 2
T7 peptide: {Biotin-AEEA}-EETHKIGSLAENAFSD-NH2
Method: as §1

[8] = biological target: T8, biotinylated 16 mer peptide 37 from the stalk region of hTLT-1 (SMILES …); assay: as above
T8 peptide: {Biotin-AEEA}-EEETHKIGSLAENAFS-NH2
Method: as §1

[9] = biological target: T9, biotinylated 20 mer peptide 16 from stalk region of TLT-1 (N-terminal bio-Oeg (biotin, 8-amino-3,6-dioxaoctanoic acid spacer)); assay: as above
T9 construct: also called B 4
T9 peptide: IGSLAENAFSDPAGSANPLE
Method: as §1

[10] = biological target: T10, biotinylated 16 mer peptide 39 from the stalk region of hTLT-1 (SMILES …); assay: as above
T10 construct: also called D 3
T10 peptide: {Biotin-AEEA}-ETHKIGSLAENAFSDP-NH2
Method: as §1

[11] = biological target: T11, biotinylated 16 mer peptide 36 from the stalk region of hTLT-1 (SMILES …); assay: as above
T11 construct: also called C12
T11 peptide: {Biotin-AEEA}-EEEETHKIGSLAENAF-NH2
Method: as §1

[12] = biological target: T12, biotinylated 20 mer peptide 12 from stalk region of TLT-1 (N-terminal bio-Oeg (biotin, 8-amino-3,6-dioxaoctanoic acid spacer)); assay: as above
T12 construct: also called A12
T12 peptide: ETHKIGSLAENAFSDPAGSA
Method: as §1

[13] = biological target: T13, biotinylated 20 mer peptide 11 from stalk region of TLT-1 (N-terminal bio-Oeg (biotin, 8-amino-3,6-dioxaoctanoic acid spacer)); assay: as above
T13 construct: also called A11
T13 peptide: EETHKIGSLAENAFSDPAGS
Method: as §1

[14] = biological target: T14, biotinylated 20 mer peptide 6 from stalk region of TLT-1 (N-terminal bio-Oeg (biotin, 8-amino-3,6-dioxaoctanoic acid spacer)); assay: as above
T14 construct: also called A 6
T14 peptide: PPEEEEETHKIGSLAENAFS
Method: as §1

[15] = biological target: T15, biotinylated 20 mer peptide 10 from stalk region of TLT-1 (N-terminal bio-Oeg (biotin, 8-amino-3,6-dioxaoctanoic acid spacer)); assay: as above
T15 construct: also called A10
T15 peptide: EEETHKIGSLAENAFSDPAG
Method: as §1

[16] = biological target: T16, biotinylated 20 mer peptide 15 from stalk region of TLT-1 (N-terminal bio-Oeg (biotin, 8-amino-3,6-dioxaoctanoic acid spacer)); assay: as above
T16 construct: also called B 3
T16 peptide: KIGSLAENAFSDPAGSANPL
Method: as §1

[17] = biological target: T17, biotinylated 20 mer peptide 13 from stalk region of TLT-1 (N-terminal bio-Oeg (biotin, 8-amino-3,6-dioxaoctanoic acid spacer)); assay: as above
T17 construct: also called B 1
T17 peptide: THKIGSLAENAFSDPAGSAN
Method: as §1

[18] = biological target: T18, biotinylated 20 mer peptide 9 from stalk region of TLT-1 (N-terminal bio-Oeg (biotin, 8-amino-3,6-dioxaoctanoic acid spacer)); assay: as above
T18 construct: also called A 9
T18 peptide: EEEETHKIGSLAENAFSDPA
Method: as §1

[19] = biological target: T19, biotinylated 20 mer peptide 7 from stalk region of TLT-1 (N-terminal bio-Oeg (biotin, 8-amino-3,6-dioxaoctanoic acid spacer)); assay: as above
T19 construct: also called A 7
T19 peptide: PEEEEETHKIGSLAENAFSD
Method: as §1

[20] = biological target: T20, biotinylated 20 mer peptide 5 from stalk region of TLT-1 (N-terminal bio-Oeg (biotin, 8-amino-3,6-dioxaoctanoic acid spacer)); assay: as above
T20 construct: also called A 5
T20 peptide: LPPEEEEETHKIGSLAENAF
Method: as §1

[21] = biological target: T21, hTLT-1.126-162 (human); assay: told in the HX-MS example; method not given
T21 construct: Made by solid phase peptide synthesis; not glycosylated; also called TLT-1 stalk peptide; chain P
T21 peptide: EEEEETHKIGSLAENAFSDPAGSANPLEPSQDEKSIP

Kd [1]: 3.75 nM | koff [1]: 0.0035 s⁻¹ | kon [1]: 932000 M⁻¹ s⁻¹ | absorbance at 450 nm [2]: > 3 | absorbance at 450 nm [3]: > 3 | absorbance at 450 nm [4]: > 3 | absorbance at 450 nm [5]: > 3 | absorbance at 450 nm [6]: > 3 | absorbance at 450 nm [7]: > 3 | absorbance at 450 nm [8]: > 3 | absorbance at 450 nm [9]: > 3 | absorbance at 450 nm [10]: > 3 | absorbance at 450 nm [11]: > 3 | absorbance at 450 nm [12]: > 3 | absorbance at 450 nm [13]: > 3 | absorbance at 450 nm [14]: > 3 | absorbance at 450 nm [15]: > 3 | absorbance at 450 nm [16]: > 3 | absorbance at 450 nm [17]: > 3 | absorbance at 450 nm [18]: > 3 | absorbance at 450 nm [19]: > 3 | absorbance at 450 nm [20]: > 3 | binding result [21]: binds
B1: mAb0061 (antibody, human IgG4 S228P, kappa, V domains shown)
VH: EVKLLESGGGLVQPGGSLKLSCAASGFDFSRYWMTWVRQAPGKGLEWIGEINPDSSTINYNPSLKDKFIISRDNAKNTLYLQMSEVRSEDTALYYCASGVFTSWGQGTLVTVSA
VL: DVVMTQTPLSLPVSLGDQASISCRSSQSLVHRNGNTYFHWALQKPGQSPKLLIYKVSNRFSGVPDRFSGSGSGTDFTLKISRVEAEDLGVYFCSQSTHVPYTFGGGTKLEIKR
notes: Mouse VH/VL, human IgG4 / kappa; variant of mAb0012 (HC T60N, LC C36A, Kabat); also called antiTLT-1 0061mab; (0012HC.T60N)2
